T1: PTK7 on PTK7 positive cell line SaOS-2 (osteosarcoma) (UniProt Q13308 31-1070, limits assumed)
T1 sequence (looked up): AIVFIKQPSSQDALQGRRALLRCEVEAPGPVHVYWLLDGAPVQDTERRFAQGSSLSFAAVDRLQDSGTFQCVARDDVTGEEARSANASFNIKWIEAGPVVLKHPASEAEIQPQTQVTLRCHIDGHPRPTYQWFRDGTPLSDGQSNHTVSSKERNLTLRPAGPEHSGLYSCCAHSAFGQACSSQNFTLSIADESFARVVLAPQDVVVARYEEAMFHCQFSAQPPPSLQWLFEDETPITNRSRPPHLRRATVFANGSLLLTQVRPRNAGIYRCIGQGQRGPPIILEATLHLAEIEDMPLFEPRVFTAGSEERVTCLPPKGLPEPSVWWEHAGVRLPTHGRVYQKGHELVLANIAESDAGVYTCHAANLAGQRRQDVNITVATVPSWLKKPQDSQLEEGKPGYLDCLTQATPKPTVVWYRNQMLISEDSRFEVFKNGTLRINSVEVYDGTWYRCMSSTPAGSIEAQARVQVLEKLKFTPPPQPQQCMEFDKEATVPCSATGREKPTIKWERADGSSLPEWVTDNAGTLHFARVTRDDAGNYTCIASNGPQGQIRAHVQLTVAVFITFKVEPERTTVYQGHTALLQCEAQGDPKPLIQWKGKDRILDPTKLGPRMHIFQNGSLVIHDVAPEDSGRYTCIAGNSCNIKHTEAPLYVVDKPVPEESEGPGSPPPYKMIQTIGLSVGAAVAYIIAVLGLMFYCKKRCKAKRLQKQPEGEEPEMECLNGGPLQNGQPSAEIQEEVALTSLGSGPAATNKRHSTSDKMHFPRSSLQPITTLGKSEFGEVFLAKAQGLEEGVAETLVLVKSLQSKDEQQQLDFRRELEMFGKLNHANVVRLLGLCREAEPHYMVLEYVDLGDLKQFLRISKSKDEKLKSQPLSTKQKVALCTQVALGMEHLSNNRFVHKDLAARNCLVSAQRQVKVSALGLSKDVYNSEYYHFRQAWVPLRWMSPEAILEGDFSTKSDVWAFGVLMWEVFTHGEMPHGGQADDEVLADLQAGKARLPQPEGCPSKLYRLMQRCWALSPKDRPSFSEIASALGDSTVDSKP

T2: recombinant human PTK7.Fc (R and D Systems, catalog #9799-TK) (human, UniProt Q13308 31-704, limits assumed)
T2 construct: Bought reagent; also called soluble recombinant human PTK7.Fc; soluble antigen PTK7; not shown: Fc part of the bought fusion (detected with anti-human Fc)
T2 sequence (looked up): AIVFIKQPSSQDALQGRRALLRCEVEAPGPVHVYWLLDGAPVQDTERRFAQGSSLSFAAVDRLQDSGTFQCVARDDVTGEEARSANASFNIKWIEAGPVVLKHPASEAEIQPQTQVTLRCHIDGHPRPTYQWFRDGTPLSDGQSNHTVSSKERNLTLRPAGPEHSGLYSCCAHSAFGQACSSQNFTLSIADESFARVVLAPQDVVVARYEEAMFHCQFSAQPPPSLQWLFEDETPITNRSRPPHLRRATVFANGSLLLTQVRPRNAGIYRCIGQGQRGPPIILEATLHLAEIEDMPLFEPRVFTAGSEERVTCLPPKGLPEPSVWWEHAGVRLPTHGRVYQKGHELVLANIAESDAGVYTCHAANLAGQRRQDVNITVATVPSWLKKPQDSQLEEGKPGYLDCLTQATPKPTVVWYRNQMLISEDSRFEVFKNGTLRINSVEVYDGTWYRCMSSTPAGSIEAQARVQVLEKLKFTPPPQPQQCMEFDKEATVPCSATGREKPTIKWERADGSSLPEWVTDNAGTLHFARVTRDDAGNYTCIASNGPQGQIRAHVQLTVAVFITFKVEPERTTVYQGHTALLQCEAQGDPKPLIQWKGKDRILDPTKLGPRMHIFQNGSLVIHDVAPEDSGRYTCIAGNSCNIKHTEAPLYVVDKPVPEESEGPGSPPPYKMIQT

B1: CTX181.M8 (other)
chain: QGWCTIPSSMSIRLCGSSGGSGGSGGSGGGPLGLAGGSSGQVQLVESGGGVVQPGRSLRLSCAASGFTFSSYGMHWVRQAPGKGLEWVAVIWDDGSNKYYVDSVKGRFTISRDNSKNTLYLQMNSLRAEDTAVYYCARDDYYGSGSFNSYYGTDVWGQGTTVTVSSGGGGSGGGGSGGGGSEIVLTQSPATLSLSPGERATLSCRASQSVSIYLAWYQQKPGQAPRLLIYDASNRATGIPARFSGSGSGTDFTLTISSLEPEDFAVYYCQQRSNWPPFTFGPGTKVDIKSAAAFVPVFLPAKPTTTPAPRPPTPAPTIASQPLSLRPEACRPAAGGAVHTRGLDFACDIYIWAPLAGTCGVLLLSLVITLYCNHRNRSKRSRLLHSDYMNMTPRRPGPTRKHYQPYAPPRDFAAYRSRVKFSRSADAPAYQQGQNQLYNELNLGRREEYDVLDKRRGRDPEMGGKPRRKNPQEGLYNELQKDKMAEAYSEIGMKGERRRGKGHDGLYQGLSTATKDTYDALHMQALPPR
notes: Masked chimeric antigen receptor on the surface of TRAC-/B2M- human T cells; entry without signal peptide
B2: CTX181.M14 (other)
chain: QGCTHVAQWAIKAFCGSSGGSGGSGGSGGGPLGLAGGSSGQVQLVESGGGVVQPGRSLRLSCAASGFTFSSYGMHWVRQAPGKGLEWVAVIWDDGSNKYYVDSVKGRFTISRDNSKNTLYLQMNSLRAEDTAVYYCARDDYYGSGSFNSYYGTDVWGQGTTVTVSSGGGGSGGGGSGGGGSEIVLTQSPATLSLSPGERATLSCRASQSVSIYLAWYQQKPGQAPRLLIYDASNRATGIPARFSGSGSGTDFTLTISSLEPEDFAVYYCQQRSNWPPFTFGPGTKVDIKSAAAFVPVFLPAKPTTTPAPRPPTPAPTIASQPLSLRPEACRPAAGGAVHTRGLDFACDIYIWAPLAGTCGVLLLSLVITLYCNHRNRSKRSRLLHSDYMNMTPRRPGPTRKHYQPYAPPRDFAAYRSRVKFSRSADAPAYQQGQNQLYNELNLGRREEYDVLDKRRGRDPEMGGKPRRKNPQEGLYNELQKDKMAEAYSEIGMKGERRRGKGHDGLYQGLSTATKDTYDALHMQALPPR
notes: as for B1
B3: CTX181.M10 (other)
chain: QGCYIGLRMVPCFHMGSSGGSGGSGGSGGGPLGLAGGSSGQVQLVESGGGVVQPGRSLRLSCAASGFTFSSYGMHWVRQAPGKGLEWVAVIWDDGSNKYYVDSVKGRFTISRDNSKNTLYLQMNSLRAEDTAVYYCARDDYYGSGSFNSYYGTDVWGQGTTVTVSSGGGGSGGGGSGGGGSEIVLTQSPATLSLSPGERATLSCRASQSVSIYLAWYQQKPGQAPRLLIYDASNRATGIPARFSGSGSGTDFTLTISSLEPEDFAVYYCQQRSNWPPFTFGPGTKVDIKSAAAFVPVFLPAKPTTTPAPRPPTPAPTIASQPLSLRPEACRPAAGGAVHTRGLDFACDIYIWAPLAGTCGVLLLSLVITLYCNHRNRSKRSRLLHSDYMNMTPRRPGPTRKHYQPYAPPRDFAAYRSRVKFSRSADAPAYQQGQNQLYNELNLGRREEYDVLDKRRGRDPEMGGKPRRKNPQEGLYNELQKDKMAEAYSEIGMKGERRRGKGHDGLYQGLSTATKDTYDALHMQALPPR
notes: as for B1
B4: CTX181.M11 (other)
chain: QGCTMPSHAVASFLCGSSGGSGGSGGSGGGPLGLAGGSSGQVQLVESGGGVVQPGRSLRLSCAASGFTFSSYGMHWVRQAPGKGLEWVAVIWDDGSNKYYVDSVKGRFTISRDNSKNTLYLQMNSLRAEDTAVYYCARDDYYGSGSFNSYYGTDVWGQGTTVTVSSGGGGSGGGGSGGGGSEIVLTQSPATLSLSPGERATLSCRASQSVSIYLAWYQQKPGQAPRLLIYDASNRATGIPARFSGSGSGTDFTLTISSLEPEDFAVYYCQQRSNWPPFTFGPGTKVDIKSAAAFVPVFLPAKPTTTPAPRPPTPAPTIASQPLSLRPEACRPAAGGAVHTRGLDFACDIYIWAPLAGTCGVLLLSLVITLYCNHRNRSKRSRLLHSDYMNMTPRRPGPTRKHYQPYAPPRDFAAYRSRVKFSRSADAPAYQQGQNQLYNELNLGRREEYDVLDKRRGRDPEMGGKPRRKNPQEGLYNELQKDKMAEAYSEIGMKGERRRGKGHDGLYQGLSTATKDTYDALHMQALPPR
notes: as for B1
B5: CTX181.M13 (other)
chain: QGCTYPPRFHMHWLCGSSGGSGGSGGSGGGPLGLAGGSSGQVQLVESGGGVVQPGRSLRLSCAASGFTFSSYGMHWVRQAPGKGLEWVAVIWDDGSNKYYVDSVKGRFTISRDNSKNTLYLQMNSLRAEDTAVYYCARDDYYGSGSFNSYYGTDVWGQGTTVTVSSGGGGSGGGGSGGGGSEIVLTQSPATLSLSPGERATLSCRASQSVSIYLAWYQQKPGQAPRLLIYDASNRATGIPARFSGSGSGTDFTLTISSLEPEDFAVYYCQQRSNWPPFTFGPGTKVDIKSAAAFVPVFLPAKPTTTPAPRPPTPAPTIASQPLSLRPEACRPAAGGAVHTRGLDFACDIYIWAPLAGTCGVLLLSLVITLYCNHRNRSKRSRLLHSDYMNMTPRRPGPTRKHYQPYAPPRDFAAYRSRVKFSRSADAPAYQQGQNQLYNELNLGRREEYDVLDKRRGRDPEMGGKPRRKNPQEGLYNELQKDKMAEAYSEIGMKGERRRGKGHDGLYQGLSTATKDTYDALHMQALPPR
notes: as for B1
B6: mask peptide P2 (peptide)
peptide: HEEVHMRPNKLSLTWAYTGPQLR
notes: Found by phage display (Screen 1); fused through a cleavable linker in the masked constructs
B7: CTX181.P1 (other)
chain: EVAPGKRWFYNHVKQVPHLVGSSGGSGGSGGSGGGPLGLAGGSSGQVQLVESGGGVVQPGRSLRLSCAASGFTFSSYGMHWVRQAPGKGLEWVAVIWDDGSNKYYVDSVKGRFTISRDNSKNTLYLQMNSLRAEDTAVYYCARDDYYGSGSFNSYYGTDVWGQGTTVTVSSGGGGSGGGGSGGGGSEIVLTQSPATLSLSPGERATLSCRASQSVSIYLAWYQQKPGQAPRLLIYDASNRATGIPARFSGSGSGTDFTLTISSLEPEDFAVYYCQQRSNWPPFTFGPGTKVDIKSAAAFVPVFLPAKPTTTPAPRPPTPAPTIASQPLSLRPEACRPAAGGAVHTRGLDFACDIYIWAPLAGTCGVLLLSLVITLYCNHRNRKRGRKKLLYIFKQPFMRPVQTTQEEDGCSCRFPEEEEGGCELRVKFSRSADAPAYQQGQNQLYNELNLGRREEYDVLDKRRGRDPEMGGKPRRKNPQEGLYNELQKDKMAEAYSEIGMKGERRRGKGHDGLYQGLSTATKDTYDALHMQALPPR
notes: Masked chimeric antigen receptor on the surface of TRAC-/B2M- human T cells; entry without signal peptide; also called masked anti-PTK7 CAR P1

Key:
[1] = target: T3, anti-PTK7 antibody Ab181; test: phage display selection of peptide binders of Ab181 (Screen 1, X15/X19 library)
T3 construct: Unmasked parent IgG1kappa; also called Ab181 IgG1kappa

[2] = target: T1, PTK7 on PTK7 positive cell line SaOS-2 …; test: cell-based or functional assay
[3] = target: T1, PTK7 on PTK7 positive cell line SaOS-2 …; test: cell-based or functional assay; remark: listed apart in the source
[4] = target: T2, recombinant human PTK7.Fc (R and D …); test: flow cytometry, percent of CAR T cells positive for 10 ug/mL PTK7.Fc
Procedure: In addition to detecting surface CAR expression, the ability of the CAR T cells and masked CAR T cells to detect target antigen was also determined. Live CAR T cells were gated by their forward scatter (FSC) and side scatter (SSC) profiles, and with DAPI dye (Invitrogen, catalog #: D3571). The cells were then stained with 10 μg/mL recombinant human PTK7.Fc (R and D Systems, catalog #9799-TK Lot DHMCO219041) as described above in Example 3, and with mouse anti-human.Fc conjugated to APC (Biolegend cat #409305) as secondary antibody for detection (FIG. 3).

| Binder | binding result [1] | % Cell killing at E:T = 1:0.5 [2] | % Cell killing at E:T = 1:1 [2] | IFNγ (pg/mL) at E:T = 1:0.5 [3] | IFNγ (pg/mL) at E:T = 1:1 [3] | % Antigen detection [4] |
| --- | --- | --- | --- | --- | --- | --- |
| EVAPGKRWFYNHVKQVPHLV (Found by phage display (Screen 1)) [mask peptide P1] | binds | – | – | – | – | – |
| B1 | – | 15.4% | 3.9% | 400 pg/mL | 443 pg/mL | 20.2% |
| B2 | – | 52.8% | 29.5% | 1760 pg/mL | 1930 pg/mL | 36.2% |
| B3 | – | 32.7% | 25.8% | 2110 pg/mL | 1880 pg/mL | 28% |
| B4 | – | 20.1% | 12.7% | 884 pg/mL | 887 pg/mL | 30.3% |
| B5 | – | 68.6% | 41.3% | 4860 pg/mL | 6170 pg/mL | 37.5% |
| B6 | binds | – | – | – | – | – |
| B7 | – | 92.7% | 79.1% | 13600 pg/mL | 20500 pg/mL | 42.7% |

Source: patent US20210347913A1 (CRISPR THERAPEUTICS, published 2021)
